Legend:
[1] = target: human MC5-receptor (human) (UniProt P33032); assay: competition with [^125I]NDP-MSH on COS cells expressing human MC5 receptor; Ki by Cheng-Prusoff
[2] = target: human MC4-receptor (human) (UniProt P32245); assay: ratio of Ki values, competition with [^125I]NDP-MSH on COS-1 cells expressing human MC receptors
[3] = target: human MC5-receptor (human) (UniProt P33032); assay: as above
[4] = target: human MC4-receptor (human) (UniProt P32245); assay: competition with [^125I]NDP-MSH on COS cells expressing human MC4 receptor; Ki by Cheng-Prusoff

Chain of human MC5-receptor (human) (P33032 whole entry): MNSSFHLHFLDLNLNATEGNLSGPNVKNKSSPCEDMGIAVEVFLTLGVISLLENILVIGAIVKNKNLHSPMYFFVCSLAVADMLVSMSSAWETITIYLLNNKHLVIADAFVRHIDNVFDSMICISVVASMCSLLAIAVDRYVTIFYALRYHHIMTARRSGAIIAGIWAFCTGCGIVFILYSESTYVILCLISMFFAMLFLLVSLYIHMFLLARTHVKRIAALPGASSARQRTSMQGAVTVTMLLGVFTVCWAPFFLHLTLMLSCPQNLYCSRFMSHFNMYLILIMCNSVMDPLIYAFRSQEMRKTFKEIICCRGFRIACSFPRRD
Chain of human MC4-receptor (human) (P32245 whole entry): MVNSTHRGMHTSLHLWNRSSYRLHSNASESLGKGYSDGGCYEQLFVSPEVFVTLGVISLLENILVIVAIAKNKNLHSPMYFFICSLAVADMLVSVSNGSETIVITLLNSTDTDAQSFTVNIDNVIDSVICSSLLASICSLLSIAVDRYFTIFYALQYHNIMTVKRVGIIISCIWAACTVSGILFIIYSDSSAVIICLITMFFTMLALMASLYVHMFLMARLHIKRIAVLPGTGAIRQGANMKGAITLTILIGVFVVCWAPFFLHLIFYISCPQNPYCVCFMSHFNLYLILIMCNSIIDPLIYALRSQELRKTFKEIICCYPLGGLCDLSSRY

With “MS05 (Ser-Ser-Ile-Ile-Ser-His-Phe-Arg-Trp-Gly-Lys-Pro-Val-NH2) (peptide)” the Ki [1] was > 50 µM, the fold lower affinity than for the MC1-receptor [2] was > 65000 fold and the fold lower affinity than for the MC1-receptor [3] was > 65000 fold. The Ki [4] was > 50 µM.
